Data reported in paper PMC9330781, “Isolated Variable Domains of an Antibody Can Assemble on Blood Coagulation Factor VIII into a Functional Fv-like Complex” (International Journal of Molecular Sciences, 2022).

B2: Recombinant B-domain deleted FVIII (BDD) (natural protein, human, UniProt P00451 20-2351, looked up)
chain 1: ATRRYYLGAVELSWDYMQSDLGELPVDARFPPRVPKSFPFNTSVVYKKTLFVEFTDHLFNIAKPRPPWMGLLGPTIQAEVYDTVVITLKNMASHPVSLHAVGVSYWKASEGAEYDDQTSQREKEDDKVFPGGSHTYVWQVLKENGPMASDPLCLTYSYLSHVDLVKDLNSGLIGALLVCREGSLAKEKTQTLHKFILLFAVFDEGKSWHSETKNSLMQDRDAASARAWPKMHTVNGYVNRSLPGLIGCHRKSVYWHVIGMGTTPEVHSIFLEGHTFLVRNHRQASLEISPITFLTAQTLLMDLGQFLLFCHISSHQHDGMEAYVKVDSCPEEPQLRMKNNEEAEDYDDDLTDSEMDVVRFDDDNSPSFIQIRSVAKKHPKTWVHYIAAEEEDWDYAPLVLAPDDRSYKSQYLNNGPQRIGRKYKKVRFMAYTDETFKTREAIQHESGILGPLLYGEVGDTLLIIFKNQASRPYNIYPHGITDVRPLYSRRLPKGVKHLKDFPILPGEIFKYKWTVTVEDGPTKSDPRCLTRYYSSFVNMERDLASGLIGPLLICYKESVDQRGNQIMSDKRNVILFSVFDENRSWYLTENIQRFLPNPAGVQLEDPEFQASNIMHSINGYVFDSLQLSVCLHEVAYWYILSIGAQTDFLSVFFSGYTFKHKMVYEDTLTLFPFSGETVFMSMENPGLWILGCHNSDFRNRGMTALLKVSSCDKNTGDYYEDSYEDISAYLLSKNNAIEPR
chain 2: EITRTTLQSDQEEIDYDDTISVEMKKEDFDIYDEDENQSPRSFQKKTRHYFIAAVERLWDYGMSSSPHVLRNRAQSGSVPQFKKVVFQEFTDGSFTQPLYRGELNEHLGLLGPYIRAEVEDNIMVTFRNQASRPYSFYSSLISYEEDQRQGAEPRKNFVKPNETKTYFWKVQHHMAPTKDEFDCKAWAYFSDVDLEKDVHSGLIGPLLVCHTNTLNPAHGRQVTVQEFALFFTIFDETKSWYFTENMERNCRAPCNIQMEDPTFKENYRFHAINGYIMDTLPGLVMAQDQRIRWYLLSMGSNENIHSIHFSGHVFTVRKKEEYKMALYNLYPGVFETVEMLPSKAGIWRVECLIGEHLHAGMSTLFLVYSNKCQTPLGMASGHIRDFQITASGQYGQWAPKLARLHYSGSINAWSTKEPFSWIKVDLLAPMIIHGIKTQGARQKFSSLYISQFIIMYSLDGKKWQTYRGNSTGTLMVFFGNVDSSGIKHNIFNPPIIARYIRLHPTHYSIRSTLRMELMGCDLNSCSMPLGMESKAISDAQITASSYFTNMFATWSPSKARLHLQGRSNAWRPQVNNPKEWLQVDFQKTMKVTGVTTQGVKSLLTSMYVKEFLISSSQDGHQWTLFFQNGKVKVFQGNQDSFTPVVNSLDPPLLTRYLRIHPQSWVHQIALRMEVLGCEAQDLY
notes: coagulation factor VIII, human, B-domain deleted; also called BDD FVIII; source: bought: FVIII pharmaceutical product, ASD Healthcare, AmerisourceBergen

Assays:
Conditions in all cases: both partners purified
[1] = molecular target: B2; experiment: pull-down; FVIII (BDD, ~2 µg) incubated with the scFv or its fragments (1- to 5-fold molar excess) in HBS-P/Ca buffer for 1 h at room temperature, captured on VIIISelect (FVIII-affinity) resin, washed, eluted, SDS-PAGE with silver staining
[2] = molecular target: T1, Recombinant blood coagulation factor VIII (human); experiment: SPR; each scFv variant covalently immobilised (amine coupling, CM5, 250-350 RU); FVIII injected at 3.125, 12.5, 50 and 200 nM; 10 mM HEPES, 150 mM NaCl, 5 mM CaCl2, 0.005% Polysorbate-20; 25 °C; 1:1 (Langmuir) binding model; Biacore T200
T1 construct: coagulation factor VIII, human, heavy chain with the domain structure A1-A2-B; coagulation factor VIII, human, light chain with the domain structure A3-C1-C2; Written here as one chain entry with two parts would be wrong: see the two pieces as heavy chain and light chain of the heterodimer; also called FVIII; source: bought: FVIII pharmaceutical product, ASD Healthcare, AmerisourceBergen

[3] = molecular target: T2, Isolated VH subunit of thrombin-cleaved iKM33-v1; experiment: pull-down; FVIII (BDD, ~2 µg) incubated with the scFv or its fragments (1- to 5-fold molar excess) in HBS-P/Ca buffer for 1 h at room temperature, captured on VIIISelect (FVIII-affinity) resin, washed, eluted, SDS-PAGE with silver staining
T2 construct: as the VH of m2; the stretch of the linker of m2 that stays on VH after thrombin cleavage; About 13 kDa; source: thrombin cleavage of the purified scFv (Sf9); supernatant after Ni-NTA agarose, buffer exchanged and concentrated

B1: scFv iKM33-v1 (thrombin-cleavable variant of iKM33) (scFv, V domains shown)
VH: EVQLVESGGGVVQPGRSLRLSCVDSGLTFSSYGMHWVRQAPGAGLEWVAVISYDGNDKYYADSVKGRFAISRDNAKNTLYLQMNSLTIEDTAVYYCAKDLIESNIAEAFWGQGTLVTVSS
VL: DIQMTQSPSSLSASVGDTVTIACRASRDIRNDLAWYQQKPGKAPKLLIYATSRLQSGVPSRFSGSGSFTDFTLTINSLQPDDSATYYCLQDSDYPLTFGGGTKVDIK
notes: as the VH of m1; linker with a thrombin cleavage site made after the FVIII Arg740 site, 15 or 17 residues long; as the VL of m1; Differs from m1 only in the linker; also called intact scFv; source: Sf9 cells, baculovirus, purified from conditioned media (HisTrap Excel, Superdex 75)
[1]
  binding result: binds
[2]
  binding result: binds

## B2
[3]
  binding result: binds

B3: scFv iKM33-v2 (thrombin-cleavable variant of iKM33) (scFv, V domains shown)
VH: EVQLVESGGGVVQPGRSLRLSCVDSGLTFSSYGMHWVRQAPGAGLEWVAVISYDGNDKYYADSVKGRFAISRDNAKNTLYLQMNSLTIEDTAVYYCAKDLIESNIAEAFWGQGTLVTVSS
VL: DIQMTQSPSSLSASVGDTVTIACRASRDIRNDLAWYQQKPGKAPKLLIYATSRLQSGVPSRFSGSGSFTDFTLTINSLQPDDSATYYCLQDSDYPLTFGGGTKVDIK
notes: as the VH of m1; linker with a thrombin cleavage site made after the FVIII Arg740 site, 15 or 17 residues long; as the VL of m1; Differs from m1 only in the linker; also called non-cleaved scFv; source: Sf9 cells, baculovirus, purified from conditioned media (HisTrap Excel, Superdex 75)
[2]
  binding result: binds

B4: scFv iKM33-v3 (thrombin-cleavable variant of iKM33) (scFv, V domains shown)
VH: EVQLVESGGGVVQPGRSLRLSCVDSGLTFSSYGMHWVRQAPGAGLEWVAVISYDGNDKYYADSVKGRFAISRDNAKNTLYLQMNSLTIEDTAVYYCAKDLIESNIAEAFWGQGTLVTVSS
VL: DIQMTQSPSSLSASVGDTVTIACRASRDIRNDLAWYQQKPGKAPKLLIYATSRLQSGVPSRFSGSGSFTDFTLTINSLQPDDSATYYCLQDSDYPLTFGGGTKVDIK
notes: as the VH of m1; linker with a thrombin cleavage site made after the FVIII Arg372 site; as the VL of m1; Differs from m1 only in the linker; source: Sf9 cells, baculovirus, purified from conditioned media (HisTrap Excel, Superdex 75)
[2]
  binding result: binds
